Data as given in article doi:10.1101/383430 (bioRxiv, 2018).

Biological target: T1, FAP45 (flagellar-associated protein 45) (Chlamydomonas (endogenous in axonemes), UniProt A8I9E8 1-501)
T1 sequence (looked up): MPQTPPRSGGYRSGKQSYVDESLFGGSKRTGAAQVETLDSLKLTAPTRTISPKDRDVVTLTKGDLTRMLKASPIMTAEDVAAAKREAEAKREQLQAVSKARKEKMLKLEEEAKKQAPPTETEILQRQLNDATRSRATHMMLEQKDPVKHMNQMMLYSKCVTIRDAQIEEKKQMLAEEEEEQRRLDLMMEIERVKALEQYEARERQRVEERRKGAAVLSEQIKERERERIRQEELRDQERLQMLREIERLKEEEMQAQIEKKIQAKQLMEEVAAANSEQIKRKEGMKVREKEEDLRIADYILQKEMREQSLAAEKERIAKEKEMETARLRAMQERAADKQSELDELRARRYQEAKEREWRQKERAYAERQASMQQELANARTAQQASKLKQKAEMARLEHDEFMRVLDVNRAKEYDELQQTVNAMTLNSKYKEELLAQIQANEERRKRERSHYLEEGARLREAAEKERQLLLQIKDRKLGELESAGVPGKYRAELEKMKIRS
Experiment: cross-linking

B1: FAP52 (flagellar-associated protein 52) (natural protein, Chlamydomonas (endogenous in axonemes), UniProt A8ILK1 1-615, looked up)
chain: MAEPLVLNSVIGFGGAIENGLIAHPDGRTIIYPLGSTIVLRDRADPRSQEFLQGHSDKVSCLALSRSGRYLASGQITYMGFTADIIIWDLESKQLIHRMALHKVKVQALDFSCDERFLASLGGQDDNALVLWDVASGNAICGSPCNTNFTNCVKFFNNSPDKLITAGNFNMNVWTYDAGNNKLRPTDATLGTLKRVFKSVVVDANDEYAYCGTTTGDVLQIALERVLFKNTGPAKGNVQMGVTATCEVPTGDILVGGGDGSLQLLRKMPALAGTKVEGAITSIALADMNARGFTFFVGTAMCNIYKPATSRLKEELVQTAHNDKINGMAFPNEYSEVFATCGTGFIRLWHLTTCRELLRIAVPNLECFCIAFTTDGSAILSGWSDGKIRAFGPQSGKIIFTINDAHQKAVTAIASTADSSRILSGGEEGMVRVWRIGRTSQTLEASMKDHKGPVNCIRIKGSGDECVSASSDGSCILWDLHTFKRRTSLFANTFFKSVVYHPDESQLVTAGTDRKVTYWDAYDGNAIRIIDGSDLDEVNALAVDRDGEALVSGGGDKLVKLWGYDEGHCYFVGVAHSGAITAVGVTPDKQRIVSVGTEGGIFIWDYQRPQTLADI
With B1 the “stoichiometry N” value was about 1.
